Experimental data published in patent US20220396617A1.

Target: human TIGIT expressed on HEK293A cells (human) (UniProt Q495A1)
Test: cell-based or functional assay

Sequence of human TIGIT expressed on HEK293A cells (human) (Q495A1 22-244 limits assumed): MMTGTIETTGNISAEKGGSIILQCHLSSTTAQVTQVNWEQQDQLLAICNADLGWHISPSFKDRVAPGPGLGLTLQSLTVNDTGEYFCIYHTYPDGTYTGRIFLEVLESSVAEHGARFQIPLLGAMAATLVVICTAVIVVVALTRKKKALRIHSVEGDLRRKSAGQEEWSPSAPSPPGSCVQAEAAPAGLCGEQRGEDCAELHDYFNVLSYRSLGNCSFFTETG

NK92-mediated ADCC against HEK293A/human TIGIT cells, EC50: 0.0236 nM
B1: Etigilimab (antibody, INN chains, looked up, human IgG1, V domains shown)
VH: QVQLQESGPGLVKPSETLSLTCAVSGYSITSDYAWNWIRQPPGKGLEWIGYISYSGSTSYNPSLRSRVTISRDTSKNQFFLKLSSVTAADTAVYYCARRQVGLGFAYWGQGTLVTVSS
VL: DIQMTQSPSSLSASVGDRVTITCKASQDVSTAVAWYQQKPGKAPKLLIYSASYRYTGVPSRFSGSGSGTDFTFTISSLQPEDIATYYCQQHYSTPWTFGQGTKVEIK
